The DeepSol protein solubility set

Test: soluble on expression in E. coli; label from the status in PepcDB or PDB records

Sequence	soluble on expression in E. coli
MSLIEELFDQMSKGNLLLIDMTYDMFNGMQTYIGDPPFKHEYFRKGNKYGEVTLSTVYMGLHSGTHIDLPLHFVPNGESVEKFNIIQFIGYGNVLDLSYKKLGEPISSNDLKKFDDRIKENYVVMLYTGFSATRGKEDFLYNWPYLDSNGADYLVSKKIRAVGIESMSIAGWAGKEYPPRTNWDEVVYVHHKLLSNDIIILESVNNMKKVLEECKNGEALFFYAPLKIVGAEGGPTRLFAICEKREGHHHHHH	not soluble
MGSDKIHHHHHHMSQSIRQAVMQASQAWIADFNRQAFADCIARYLPEAQMQVSPFGRFDGVEAISQFWLGFAQQNPGELVYRNVEIKVLSDSQAILSANWRMNIASGFISKELWTLADDGHWYLEEDDFSVLTQLSEPLAPRMRSALVLVDLQNDYFKGGRFALDNCEAAAANAAKLLHHFRSNQLPVIHVQHIFKDPEASFFQAGTQGVEIADMVAPKGNEPVIIKHYVDSFIDTALSQTLIEMGIDKLVVVGAMAQACVQTLCRSAVKAGFECEVISDAIAAPSLSWESQDLSGEQLVAANLISLSFGGAKALSLDDWLILERLAG	not soluble
MAGDPMRFQKIPMNIYEKFHRTFSGSNQDTFNVCSKCGGACEHNKIGTLLPGEKEYMAKKMGMSLSEFKLKYLDVLKMDDGTLIHVLKLGELCPFLNTETELCECRDFKPVICKIYPVVFTVESGKVKFSIDDWCQLSRKKVCRNYFESVIPLLYRLPVPVEWFRHVVSYDDLYFDYDQLRESRKGKSRYAVFTLKELLNFQKEELACHEIETYEPETGRMELYEIKVTSPNIDFCSEIEEPTFLEHHHHHH	soluble
MSLKTLMAVGLAAVMSIPFAANAADYVIDTKGAHASINFKVNHLGYSYIKGRFNKFDGEFSYDPANIAASSVVVNVDTRSLDSNHAERDKHIRSADFIDASKYSTATFKSTEVVDKGNGQLEVKGDLTLHGQTKPIVINAEFIGAGQDPWGGQRSGFAGTTRLELKDFGIQVMGASSYVDMELHVEGVQKEGGSHHHHHH	soluble
MGSDKIHHHHHHMSRVNELVGTLFTGGRKPDDLYGRVFVVSAFGGITNLLLEHKKTGEPGVYARFADAESDHGWHEALSRVGDEMRKAHEAVLENAGDVAQADAFVSERIEGARNCLIDLQRLCSYGHFRLAEHMLQIRELLSGLGEAHSAYVTALLLQRAGVNARFVDLSGWRDEGDVTLEERISSALNDVDPATEMPIVTGYAQCAEGLMREFDRGYSEVTFSCLAALTGASEAIIHKEFHLSSADPKLVGEGVAQKLGHTNYDVADQMSNMGMEAIHPKAAKTLRQADVPLRVTNAFEPEDPGTLIDDKPADQPAVEMITGLDIIALELFEQDMVGVKGYDAAILEVLTRHDVRIVSKTSNANTITHYLDTSLTVLKRVEKDLAKIYPNADISARLLSMASAIGRDLKGLSVLTRGLQAIADVGLASLGASQGPRNVDVQFIVEREDLKPVISALHKVLVEGRPAKQEKPIKAAA	not soluble
MAHQYPSWIFINEKTFITREQLNSLLKTYNIFYENQKNLHILYGETEDGKLIVEGMLDIFWGVKRPIQLKIQDEKPFSSFTSMKSSDVFSSKGMTRWGEFDDLYRISELDRTQIPMSEKRNSQEDYLPYHSNTLKPHAKDEPDSPVLYRTMSEAALVRKRMKPLMMDRKERQKNRASINGHFYNHEIENSPQDFALHIIFATGEQRRLKKTDIPLLQRLLQGPSEKNARIFLMDKDAEEISSDVAQYINFHFSLLESILQRLNEEEKREIQRIVTKFNKEKAIILKCLQNKLVIKTETTV	not soluble
MAHHHHHHMPCEGCGLSEAAMQCPTCKKLDMPPSYFCSQACFKEHWADHKLKHTQSALPTIPTMTEAAMNAFNFTGSLRPGRITPRRAVPSHIPRPDYANRADGLSPAEEKDRGAKVRVYNLQSLHDDSKETADIQRVKKVCRLSREVLDIATAAVRPGVTTDEIDRIVHEATIERDMYPSPLNYYNFPKSVCTSVNEVICHGIPDSRGLEEGDIVNIDVSSYLNGFHGDLNETVFVGKPDADSVRLVHAAYESLYAGIKVVKPEALYKHVGDAIEACAVQYGCSVVRAYTGHGVGHLFHTAPTVCHYANNKSLGMMRPGHVFTIEPMINLGTWQDVTWPDNWTSTTRDGKRSAQFEHTMVVTNDGAELFTDWTDGIPTYQKQLEGWNIPLPSPSNGVAH	not soluble
DAVELFKKANAMLDEDEDERVDEAALRQLTEMGFPENRATKALQLNHMSVPQAMEWLIEHAEDPTIDTPL	soluble
MAHHHHHHMAKTVDNAALLAEIDQLRRLIAEKEALITPDGGSLSKKSKKKSQMNMVETEPVQGCRDFPPETMRLRKYLFDVFHSTARKFGFEEYDSPVLESEELYIRKAGEEITEQMFNFITKGGHRVALRPEMTPSLARQLLAKGRSLLLPAKWYSIPQCWRYEAITRGRRREHYQWNMDIIGVKSVSSEVELVCAACTAMQSLGLSSKDVGVKINSRKILQTVVEQAGVSADKFAPVCVIVDKMEKLPREEVVAQLAAIGLESNVVDAITSTLSLKTIDEIAQRIGEEHEAVRELRDFITQIEAYGFGDWVIFDASVVRGLAYYTGIVFEGFDRDGNFRALCGGGRYDNLLTTYGSPTAVPCVGFGFGDCVIVELLNEKKLLPELHHVVDDLVIPFDETMRPHALSILRRLRDAGRSADIVFDKKKVVQAFNYADRIGALRAVLVAPDEWARGEVRVKMLREGAGREEGANERGIVLPVDKIV	not soluble
SLPHPAPGPGDPEDPRLAEVVDAVRSSRRYQSVAPETVRRLATSALVASRGDLAEAVKRTKRGLHEIFGAYLPSPPKYDALLRQLRGAVDAATTRPCGHPAPRHVHARLHPRALPILDEFYREVFARCADPASVRDLACGMNPLAAPWMPGSDAFTYHASDIDTRLMEFLDAALETLGVAHDVRVRDLMTGVGEVETDVTLLLKTVPCIEAQGRGQGWDLIDAIRSPLVVVSFPTKSLGQRSKGMFNTYSANFDAWLENRPHDVEQLEFRNELVYFVRKNA	soluble
MGSDKIHHHHHHMKKLFLVLAVLSLVLYGCLRTPPVVKDMVTTDGSLSDWGSKIKEDAADDSKWGADNELLKAGLLFDGANIYIAGEYVIGGDGNVNVFLVLIDLVGVTGAQTVSYTGLNDGNRNFTNPNGDIDLIVEVNQSNEYKVWRVSQDGSLTDITDQVTAQFGTGSTIAELKIPISEQVNQVKAVFAISGGTGGGNQWVGDFYPNQPDHDSAENGGIPQPAPVVNFVVCDKEGNVSEEINQTSEPEQPTESVIVVDGDLSDFGTPVATSTNPGGGNGANLYRLYVTYDATYLYIGFDTQNSGSWDVAYGIGIDTKPSGYTGDSDAWGRKISFGADYAVDYEIYFWWAGGSGLDSNNFCEWNGLDWNYRSIADAGGTFDYTGDTSSGLQTMEIAIPWSAIGGKQDVALIVWITGGSGSAVDSIPDDDSTIDNADEWNDSDTFTNLYLLQVN	not soluble
MQIQKSFKGQSPYGKLYLVATPIGNLDDMTFRAIQTLKEVDWIAAEDTRNTGLLLKHFDISTKQISFHEHNAKEKIPDLIGFLKAGQSIAQVSDAGLPSISDPGHDLVKAAIEEEIAVVTVPGASAGISALIASGLAPQPHIFYGFLPRKSGQQKQFFGLKKDYPETQIFYESPHRVADTLENMLEVYGDRSVVLVRELTKIYEEYQRGTISELLESIAETPLKGECLLIVEGASQGVEEKDEEDLFVEIQTRIQQGVKKNQAIKEVAKIYQWNKSQLYAAYHDWEEKQ	not soluble
MGSDKIHHHHHHMLEGIFDINHVFDEEGIKTLKRFGWDGSVAVQNHNEYSEEKINTAVEYGENCEFKVYSGVKISTKNQNEMEKAVKKYRNKVDILLVEGGDVKINRRVLEMNDVDILSTPELNRMDNGLDHILARLGSTNRVAVELNFGNLLKSKNYDRSKILWAFQRNLKLSKKYDTPVVISSGANDIYGIKAPGDLRGFLNTVADPLYSKKIIETTSKIIDYRLYLKNKNVLMPGLEIVEE	not soluble
MGSDKIHHHHHHMAADHVHCASCGQPLTGSYYVLINRPERFCPQCIATRPRCSTCGAPLGNHFWKLHDGRQQCDACHAVAIYDPVQAQHLFQQTAGMLAEGMGLRLHVGVAFRLVDAPTMARLRGPTPPGQDTLGLYRRQNHVRVIYLLYGLPTLIFRITAAHEYAHAWQAEHCPLLRNEFLREGHAEWVAYQHLLQLGSHKAAARMLDENHPYHEPLRYLLQLEAQLGIEGVNRYMMRVDIE	not soluble
MKAIISYETPLEQAHFTAKNDEKNMFYKENTEESVEGSLQYDVLDAVGEFKGQPGYIVCNNISVTDEGRPVFENRFKNRAGLIENEPGFQAIRVLRPLSNDTYVILTMWETEQNFKDWTESRSFENAHKKRPVQAEGQAPAHPHAEQQKSIFSRPSFVTTFDVLV	not soluble
MSLTTIKNIESFVYRYPLSKPVITSFGVMNNRPMLILKITDNNGMYGWGEVWCNFPLTGAEHRAKLIDNIFKPLLANFDIITPEKTYEYLVSKTKILSIQSGEPGPIAQCIAGIDIAVHDLIGKVENISLWKKFGGNKNIIPCYASGINPTKPEVTVKDAIKKGYSSFKLKIGFGIKKDLGNIKEIKNILPEKSSLMVDANQAWNLNEAIEACRLLEDLNLCWLEEPIPANSEIKEWIHLKDSTKITLAAGENFNSHREFSSFFQNKVFGYLQPDIAKWGGFTECSKLIKNIIQNKITYCPHYLGGGIGLVASAHLLSASNGKGILEVDINDNPLRSDIVGDIFEKNSGFATLSDIPGLGFEPNLKTISKYLVAHEGHHHHHH	soluble
MQNHVISLASAAERRAHIAATFGVRGIPFQFFDALMPSEELNRMMAELVPGLAKQHLLSEVEKACFMSHAVLWKQALDEGLPYVAVFEDDVLLGKDAEKFLAEDTWLEERFDKDSAFIVRLETMFAKVIVRPDKVLNYENRSFPLLESEHWGTAGYIISREAMRFFLERFAVLPAEWIKAVDWMMFTYFFDKEGMPVYQVNPALCTQELHYAKFLSKNSMLGSDLEKDREQERRHRRSLKVMFDLKRALGKFGREKKKRMERQRQAELEKAYGRRVISFK	not soluble
RLFGDNVVALAGDAGFRTYWLSNQARLGRYDTPVTAMANMAHFKTWADAPYDEALLPLLDAALAEPGRKVVFLHINGNHDNYCTRYPETATVYQGGAPYEDCYDNSIRYVDALLGAVMDRLGERRASLLFYPDHGLERHESVLGTFYHGGVRPSREAFDIPMFIWNSPAAPAPARREYDAPYSTEDNYGLILDWLG	not soluble
MNDDLIMRKKPEQIEMEFQDSGESALVKSTLLSSLQNSEWEIAVRKEVKKFLEKARDDVSAKEVFDAVKDMARREIPQEAKKKLYDQVLEFVTTTNKK	not soluble
YWFRSHKLERQLAEFQMQNELQYRYYAELEQKYRESRKIMHDMKNHLQAVEHLYQAKDGQEQGGAYVKDLYHMLNLLGEKYYSSNRMLNIICNDKLSLARHPAVAISVEIGDVDFSDLRDIDITTIFANLLDNALEAVEAFGEGAYLNLKIQEVHHFRVISIVNASRPGMKKEGHMGVGLENVRRTVEAYQGTMQCEIVGEEYRVSVMLPGKEDS	not soluble
MAHHHHHHMLQWVVKEVEGPFGNIATIHWAVPEGQDDGESSDNTAESQKLHHKVGQGGKVQPELQHLLEDAEDQLGAVLWNSNSVAMGHLQKHVLQNHDKACHVVELGAGVGCLGIGLAMAGARVVITDMKELVPLMEKNIELNKERILSRSNGKGSCVAMTWRWGPPPLVKQKHNAKRVKINNARQHSSNADVPSAQNERGRSPYLLPSPAFVEMQRLLDHVDLVVLCDALYGNPKSWPQLLYTLSEILAANPRCEVINFCEQRVDDVEGDFLNLLQQENAKLPPPANSAVGPEGNETMEEALLRMRGSYKWSTSTEVVGEGPSDLGMPVRVTRISWVHRSGKWGTGASTASRDVVVDGADLGR	not soluble
MSATPPTTPAPTAAASAGKGLHSRAYNGLIKACDKYVPPKMRPLWMHPAGPKTIFFWAPIVKWSLVIAGLSDLTRPADKISPNGCLALGATNLIWTRYSLVIIPKNYSLFAVNLFVSLTQLFQLGRYYNYQWEQSRLEKNGEQCPAIEASLLEHHHHHH	not soluble
